Values quoted from earlier work as cited in article PMC6767261.

Biological target: Endothelin receptor type B (UniProt P24530)
Assay: radioligand

Chain of UniProt P24530 (P24530 27-442): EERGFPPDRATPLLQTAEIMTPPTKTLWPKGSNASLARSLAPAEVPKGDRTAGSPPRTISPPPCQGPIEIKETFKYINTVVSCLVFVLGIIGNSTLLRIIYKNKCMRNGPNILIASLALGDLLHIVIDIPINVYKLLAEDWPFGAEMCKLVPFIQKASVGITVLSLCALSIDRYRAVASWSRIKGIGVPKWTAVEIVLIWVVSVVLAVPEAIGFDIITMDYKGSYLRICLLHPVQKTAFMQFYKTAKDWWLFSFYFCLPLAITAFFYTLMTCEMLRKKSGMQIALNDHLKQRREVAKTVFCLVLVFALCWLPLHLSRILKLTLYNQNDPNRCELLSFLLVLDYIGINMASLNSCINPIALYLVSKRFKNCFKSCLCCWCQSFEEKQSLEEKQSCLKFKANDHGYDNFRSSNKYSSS

Kd [nM]	Substance
54.5	Endothelin-1 ([125I]-ET-1), ciliary epithelium (from UniProt P05305)
142	Endothelin-1 ([125I]-ET-1), ciliary muscle (from UniProt P05305)
